Results as given in article PMC6271298, “Pharmacophore Generation from a Drug-like Core Molecule Surrounded by a Library Peptide via the 10BASEd-T on Bacteriophage T7” (Molecules, 2014).
5/6‑FAM = 5/6-carboxyfluorescein

B1: Sal-conjugated fluorescent peptide possessing the sequence of clone 7 (K-5/6-FAM-A-M-W-C*-Q-Y-H-P-Q-N-C*-Y-K-M-NH2) (peptide)
peptide: KAMWCQYHPQNCYKM
modifications: 5/6-FAM on the N-terminal lysine (K-5/6-FAM); Sal-conjugated Cys (C*) at both cysteines; C-terminal amide (NH2)
notes: Linear peptide; both cysteines are alkylated with 4-acetamidosalicylic acid (thioether); also called Sal-conjugated peptide; Sal-conjugated linear peptide; source: synthetic peptide (solid phase synthesis, HPLC), then conjugated with Sal-IA and purified by reverse-phase HPLC
B2: mock (Sal-unconjugated) fluorescent peptide (H2N-K-5/6-FAM-A-M-W-C-Q-Y-H-P-Q-N-C-Y-K-M-NH2) (peptide)
peptide: H-K(5/6‑FAM)AMWCQYHPQNCYKM-NH2
modifications: cysteine pairing not given here
notes: cysteines not alkylated; Assayed under reducing conditions (1 mM TCEP), so the cysteines are free thiols; also called mock peptide; unmodified fluorescent peptide; source: synthetic peptide (solid phase synthesis, reverse-phase HPLC)

Molecular target: T1, streptavidin (UniProt P22629 25-183)
T1 construct: streptavidin; Commercial streptavidin is usually a homotetramer of a processed (core) form; also called SA; source: bought: Wako Pure Chemical Industries (ELISA)
T1 sequence (P22629 25-183): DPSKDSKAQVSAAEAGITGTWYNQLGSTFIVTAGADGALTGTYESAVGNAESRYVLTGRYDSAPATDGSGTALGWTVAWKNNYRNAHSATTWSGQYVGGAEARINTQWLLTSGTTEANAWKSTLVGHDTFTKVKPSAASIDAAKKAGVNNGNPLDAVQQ
Assay: fluorescence polarisation; 4 pmol FAM-labelled peptide with various concentrations of the protein; 50 mM Tris-HCl pH 8.0, 150 mM NaCl, 1 mM TCEP-NaOH, 30 °C; Klotz plot, non-linear least squares fit
Conditions: both partners purified

Binder | Kd | fold lower affinity than the Sal-conjugated peptide
B1 | 180 nM | –
B2 | – | ~10 fold
